# Test results as given in patent US7217686B1, “DNA sequence encoding oncofetal ferritin protein” (Gardino Investment N.V., priority 1999, dated 2007).
# “And” between values parts separate entries of the source, which are not always exact repeats. Equal values may be shown once.
# B1: OFF1: oncofetal ferritin 1 protein, purified from term placenta, termed also p43 (placental isoferritin, PLF) (protein)
# chain: MTTASTSQVRQNYHQDSEAAINRQINLELYASYVYLSMSYYFDRDDVALKNFAKYFLHQSHEEREHAEKLMKLQNQRGGRIFLQDIKKPDCDDWESGLNAMECALHLEKNVNQSLLEFPSPISPSPSCWHHYTTNRPQPQHHLLRPRRRKRPHSIPTPILIFRSP
# modifications: left off: a dimerising Fc or GST
# Columns and labels:
# [1] = system: C57Bl Donor lymphocytes in transplanted Balb/c mice; test: Bone marrow transplantation C57Bl into Balb/c, flow cytometry for donor K^b positive cells; format: in vivo; conditions: Balb/c BMT treated with OFF1 (ex vivo 1 μg/ml, 10 μg i.p. for 14 days); 6 weeks post transplantation; results not shown
# From the text: Animals: C57BL/6 (H2^b) and BALB/c (H2^d) mice were purchased from Harlane. Donors and recipients were 8–10 wk of age at the time of BMT. All mice were housed in a specific pathogen-free facility in microisolator cages.
# Ex-vivo induction of anergy in mixed lymphocyte reaction (MLR): C57Bl donor bone marrow (responder) was harvested 2 days before transplantation. Balb/c recipient (stimulator) spleen cells were irradiated at a midplane dose of 3300 cGy. The cells were resuspended in RPMI-1640 medium with 5% mouse serum to 4×10^6/ml and incubated with 1 μg/ml of OFF1 for 30 min.
# The erythrocyte depleted mononuclear cell fraction of the marrow was resuspended at a concentration of 4×10^6/ml in the above medium in a Donor:Recipient ratio of 1:1. The cells were cultured in tissue culture flasks for 36 hours at 37° C. in 5% CO2, washed and resuspended to 2×10^7 cells/1 ml in PBS containing OFF1 (1 μg/ml).
# Bone marrow Transplantation (BMT): Balb/c recipients were sublethely irradiated by exposing mice to 5;5 GRAY total body irradiation from a ^137Cesium source at a dose rate of 85 cGY/min.
# Day 2 MLR cultured cells (10^7/0.5 ml) were injected intravenously to BALB/c mice pretreated with OFF1 ((10 μg) injected i.p.) (BMT+OFF1). […]
# All results were obtained using FACS (Beckton Dickenson). […] 10,000 cells were analyzed for each determination.
# [2] = system: human bone marrow progenitor CFU-GM; test: CFU-GM colony assay with normal human bone marrow mononuclear cells; format: cell-based; conditions: for number of CFU-GM colonies: scored after 14 days
# Method: Bone marrow samples from 11 healthy volunteer donors were processed by density gradient separation using […] (Sigma diagnostics, St. Louis, Mo., USA) to obtain a purified population of mononuclear cells. Colony assays were performed in a plating medium containing final concentrations of 0.92% methyl cellulose (M-281 powder, 4,000 centipoise, Fisher Scientific Co., Fair Lawn, N.J., USA), rehydrated in Iscove's modified Dulbecco's medium containing 36 mM sodium bicarbonate (Gibco, Grand Island, N.Y., USA), 30% fetal bovine serum (FBS) (HyClone, Logan, Utah, USA) 0.292 mg/ml glutamine, 100 U/ml penicillin and 0.01 mg/ml streptomycin (Biological Industries, Beit Haemek, Israel). Growth factors used were […] GM-CSF Leucomax (Sandoz Pharma) and 5% vol/vol human phytohemagglutinin-M (Difco Laboratories, Detroit, Mich., USA)-induced conditioned medium (Cond. Med.) p43 (PLF) was added at concentration of 1 μg/mL and in neutralization experiments, p43 (PLF) was preincubated with 10× excess of CM-H-9 MoAb at 37° C. for 30 min and the complex added to the assay as above. The colony assay medium contained 10^5 mononuclear cells/ml and each 1 ml was plated into triplicate wells (333 μl/well) of a 24 well tissue culture plate (Greiner, Germany). Water was added to spaces between cells to maximize humidity during incubation of the cultures. The cultures were incubated at 37° C. in 5% CO2 and 55% relative humidity. Plates were scored after 14 days for colonies containing more than 50 cells.
# [3] = system: splenocytes from Balb/c mice transplanted with C57Bl bone marrow; test: MLR of splenocytes from bone marrow transplanted Balb/c mice against alloantigens; format: cell-based
# From the text: (§1) Immunologic assay: Splenocytes from bone marrow transplanted (BMT) Balb/c mice were reacted as above in MLR against the donor C57Bl splenocytes or against non-related splenocytes, to measure their immunoresponsiveness to the corresponding alloantigens.
# Splenocytes obtained from Balb/c mice (K^b) treated with BMT+PBS (control) and with BMT+OFF1 were used as responder cells (R) and were reacted with C57Bl (K^b) splenocytes as stimulator cells (S) in MLR.
# [4] = system: splenocytes from Balb/c mice transplanted with C57Bl bone marrow; test: In-vitro OFF1 treatment of splenocytes from transplanted Balb/c mice in MLR; format: cell-based
# From the text: as §1
# In further experiments we tested the in-vitro effect of OFF1 treatment on responsiveness of splenocytes from control BMT+PBS against both donor C57Bl stimulators and against ICR stimulators.
# [5] = 11 donors, Cond. Med. 5% vol/vol, p43 (PLF) 1 μg/ml, GM-CSF 15 ng/ml
molecule,measurement,setting,value
B1,K^b positive donor cells in bone marrow and spleen,[1],development of hematopoietic chimerism
same,MEDIAN number of CFU-GM colonies,[2]; [5],94
same,RANGE of number of CFU-GM colonies,[2]; [5],0–748
same,mean number of CFU-GM colonies (AVG.),[2]; [5],169+/−216 and 169
same,number of CFU-GM colonies,"[2]; Bone Marrow No. 1, Cond. Med. 5% vol/vol, p43 (PLF) 1 μg/ml, GM-CSF 15 ng/ml",280
same,number of CFU-GM colonies,"[2]; Bone Marrow No. 2, Cond. Med. 5% vol/vol, p43 (PLF) 1 μg/ml, GM-CSF 15 ng/ml",748
same,number of CFU-GM colonies,"[2]; Bone Marrow No. 3, Cond. Med. 5% vol/vol, p43 (PLF) 1 μg/ml, GM-CSF 15 ng/ml",152
same,number of CFU-GM colonies,"[2]; Bone Marrow No. 4, Cond. Med. 5% vol/vol, p43 (PLF) 1 μg/ml, GM-CSF 15 ng/ml",28
same,number of CFU-GM colonies,"[2]; Bone Marrow No. 5, Cond. Med. 5% vol/vol, p43 (PLF) 1 μg/ml, GM-CSF 15 ng/ml",94
same,number of CFU-GM colonies,"[2]; Bone Marrow No. 6, Cond. Med. 5% vol/vol, p43 (PLF) 1 μg/ml, GM-CSF 15 ng/ml",6
same,number of CFU-GM colonies,"[2]; Bone Marrow No. 7, Cond. Med. 5% vol/vol, p43 (PLF) 1 μg/ml, GM-CSF 15 ng/ml",0
same,number of CFU-GM colonies,"[2]; Bone Marrow No. 8, Cond. Med. 5% vol/vol, p43 (PLF) 1 μg/ml, GM-CSF 15 ng/ml",242
same,number of CFU-GM colonies,"[2]; Bone Marrow No. 9, Cond. Med. 5% vol/vol, p43 (PLF) 1 μg/ml, GM-CSF 15 ng/ml",8
same,number of CFU-GM colonies,"[2]; Bone Marrow No. 10, Cond. Med. 5% vol/vol, p43 (PLF) 1 μg/ml, GM-CSF 15 ng/ml",210
same,number of CFU-GM colonies,"[2]; Bone Marrow No. 11, Cond. Med. 5% vol/vol, p43 (PLF) 1 μg/ml, GM-CSF 15 ng/ml",94
same,concentration giving the highest number of CFU-GM colonies,"[2]; dose response, bone marrow progenitor cells from three donors (FIG. 10)",1 μg/1 mL
same,Mean CFU-GM following preincubation with MoAb CM-H9,[2]; p43 (PLF) 1 μg/mL preincubated with 10× excess of CM-H-9 MoAb at 37° C. for 30 min,7+/−10
same,"P.I. (Proliferation Index), BMT + OFF1, in-vitro treatment None",[3]; Stimulator C57Bl,1.3
same,"P.I. (Proliferation Index), BMT + OFF1","[3]; Stimulator C57Bl, S/R Ratio 0",1
same,"P.I. (Proliferation Index), BMT + OFF1","[3]; Stimulator C57Bl, S/R Ratio 0.2",1.3
same,"P.I. (Proliferation Index), BMT + OFF1","[3]; Stimulator C57Bl, S/R Ratio 1",1
same,"P.I. (Proliferation Index), BMT + OFF1","[3]; Stimulator C57Bl, S/R Ratio 4",1.1
same,"P.I. (Proliferation Index), BMT + OFF1, in-vitro treatment None",[3]; Stimulator ICR,9.6
same,"P.I. (Proliferation Index), BMT + OFF1","[3]; Stimulator ICR, S/R Ratio 0",1
same,"P.I. (Proliferation Index), BMT + OFF1","[3]; Stimulator ICR, S/R Ratio 0.2",1.8
same,"P.I. (Proliferation Index), BMT + OFF1","[3]; Stimulator ICR, S/R Ratio 1",2.6
same,"P.I. (Proliferation Index), BMT + OFF1","[3]; Stimulator ICR, S/R Ratio 4",9.6
same,response of splenocytes of BMT+OFF1 chimeric mice to donor C57Bl stimulators in MLR,[3]; any S/R ratios,completely anergic
same,"P.I. (Proliferation Index), BMT + OFF1, in-vitro treatment OFF1",[4]; Stimulator C57Bl,1.3
same,"P.I. (Proliferation Index), BMT + PBS, in-vitro treatment OFF1",[4]; Stimulator C57Bl,1
same,"P.I. (Proliferation Index), BMT + OFF1, in-vitro treatment OFF1",[4]; Stimulator ICR,4.7
same,"P.I. (Proliferation Index), BMT + PBS, in-vitro treatment OFF1",[4]; Stimulator ICR,3.5
